Laboratory results as given in patent publication US20250262242A1 (published 2025).
Positions count from the first letter of the chain named.

What was measured:
[1] = molecular target: T1, mutant splice factor-induced (SF3B1mut) splice variant of MAPK8IP2 peptide on HLA-A*02:01 (human); assay: killing
T1 peptide: RLPGVLPRA

[2] = molecular target: T2, EBV BZLF1 peptide on HLA-B*35:01 (human); assay: activation reporter or marker
T2 peptide: EPLPQGQLTAY

[3] = molecular target: T3, EBV BRLF1 peptide on HLA-A*02:01 (human); assay: activation reporter or marker
T3 peptide: YVLDHLIVV

[4] = molecular target: T4, EBV LMP2 peptide on HLA-A*02:01 (human); assay: activation reporter or marker
T4 peptide: CLGGLLTMV

[5] = molecular target: T1, mutant splice factor-induced (SF3B1mut) …; assay: multimer staining
[6] = molecular target: T5, HERV-K gag protein peptide on HLA-A*02:01 (human); assay: killing
T5 peptide: FLQFKTWWI

[7] = molecular target: T6, EBV LMP2 (LMP2A) peptide on HLA-A*02:01 (human); assay: activation reporter or marker
T6 peptide: MGSLEMVPM

B1: TCR_A0130 (TCR, V domains shown)
Valpha: AQTVTQSQPEMSVQEAETVTLSCTYDTSESNYYLFWYKQPPSRQMILVIRQEAYKQQNATENRFSVNFQKAAKSFSLKISDSQLGDTAMYFCAFMIPDSNYQLIWGAGTKLIIKP
Vbeta: ETGVTQTPRHLVMGMTNKKSLKCEQHLGHNAMYWYKQSAKKPLELMFVYNFKEQTENNSVPSRFSPECPNSSHLFLHLHTLQPEDSALYLCASSQVGTSGRGGELFFGEGSRLTVL
- binding result [1]: recognises

B2: TCR_A0099 (TCR, V domains shown)
Valpha: ILNVEQSPQSLHVQEGDSTNFTCSFPSSNFYALHWYRWETAKSPEALFVMTLNGDEKKKGRISATLNTKEGYSYLYIKGSQPEDSATYLCAVNAGGTSYGKLTFGQGTILTVHP
Vbeta: EAGVAQSPRYKIIEKRQSVAFWCNPISGHATLYWYQQILGQGPKLLIQFQNNGVVDDSQLPKDRFSAERLKGVDSTLKIQPAKLEDSAVYLCASSSDWTANNEQFFGPGTRLTVL
- binding result [2]: recognises

B3: TCR_A0001 (TCR, V domains shown)
Valpha: AQSVSQHNHHVILSEAASLELGCNYSYGGTVNLFWYVQYPGQHLQLLLKYFSGDPLVKGIKGFEAEFIKSKFSFNLRKPSVQWSDTAEYFCAVKDTDKLIFGTGTRLQVFP
Vbeta: not shown
- binding result [3]: recognises

B4: TCR_A0004 (TCR, V domains shown)
Valpha: B3 Valpha
Vbeta: not shown
- binding result [3]: recognises

B5: TCR_A0002 (TCR, V domains shown)
Valpha: B3 Valpha
Vbeta: DTAVSQTPKYLVTQMGNDKSIKCEQNLGHDTMYWYKQDSKKFLKIMFSYNNKELIINETVPNRFSPKSPDKAHLNLHINSLELGDSAVYFCASSPDFNEQFFGPGTRLTVL
- binding result [3]: recognises

B6: TCR_A0064 (TCR, V domains shown)
Valpha: GQQVMQIPQYQHVQEGEDFTTYCNSSTTLSNIQWYKQRPGGHPVFLIQLVKSGEVKKQKRLTFQFGEAKKNSSLHITATQTTDVGTYFCAGAGAGSYQLTFGKGTKLSVIP
Vbeta: KAGVTQTPRYLIKTRGQQVTLSCSPISGHRSVSWYQQTPGQGLQFLFEYFSETQRNKGNFPGRFSGRQFSNSRSEMNVSTLELGDSALYLCASSLEGQASSYEQYFGPGTRLTVT
- binding result [4]: recognises

B7: TCR_A0066 (TCR, V domains shown)
Valpha: B6 Valpha
Vbeta: B6 Vbeta with L95A
- binding result [4]: recognises

B8: TCR_A0005 (TCR, V domains shown)
Valpha: AQKITQTQPGMFVQEKEAVTLDCTYDTSDQSYGLFWYKQPSSGEMIFLIYQGSYDEQNATEGRYSLNFQKARKSANLVISASQLGDSAMYFCAMREGGNFNKFYFGSGTKLNVKP
Vbeta: SAVISQKPSRDICQRGTSLTIQCQVDSQVTMMFWYRQQPGQSLTLIATANQGSEATYESGFVIDKFPISRPNLTFSTLTVSNMSPEDSSIYLCSVGGTSGTLPANEQFFGPGTRLTVL
- binding result [3]: recognises

B9: TCR_A0131 (TCR, V domains shown)
Valpha: AQTVTQSQPEMSVQEAETVTLSCTYDTSENNYYLFWYKQPPSRQMILVIRQEAYKQQNATENRFSVNFQKAAKSFSLKISDSQLGDTAMYFCAFMLIDSGTYKYIFGTGTRLKVLA
Vbeta: EAQVTQNPRYLITVTGKKLTVTCSQNMNHEYMSWYRQDPGLGLRQIYYSMNVEVTDKGDVPEGYKVSRKEKRNFPLILESPSPNQTSLYFCASSLGQGTETQYFGPGTRLLVL
- binding result [1]: recognises

B10: TCR_A0358 (TCR, V domains shown)
Valpha: B9 Valpha with L96G, I97P
Vbeta: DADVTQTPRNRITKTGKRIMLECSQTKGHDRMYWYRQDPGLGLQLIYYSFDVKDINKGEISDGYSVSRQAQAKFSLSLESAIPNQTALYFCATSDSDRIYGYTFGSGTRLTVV
- binding result [5]: recognises

B11: TCR_A0100 (TCR, V domains shown)
Valpha: KQEVTQIPAALSVPEGENLVLNCSFTDSAIYNLQWFRQDPGKGLTSLLLIQSSQREQTSGRLNASLDKSSGRSTLYIAASQPGDSATYLCAVGGNNNDMRFGAGTRLTVKP
Vbeta: AAGVIQSPRHLIKEKRETATLKCYPIPRHDTVYWYQQGPGQDPQFLISFYEKMQSDKGSIPDRFSAQQFSDYHSELNMSSLELGDSALYFCASSLINTEAFFGQGTRLTVV
- binding result [6]: recognises

B12: TCR_A0003 (TCR, V domains shown)
Valpha: AQSVSQHNHHVILSEAASLELGCNYSYGGTVNLFWYVQYPGQHLQLLLKYFSGDPLVKGIKGFEAEFIKSKFSFNLRKPSVQWSDTAEYFCAGGAAGNKLTFGGGTRVLVKP
Vbeta: EAGVAQSPRYKIIEKRQSVAFWCNPISGHATLYWYQQILGQGPKLLIQFQNNGVVDDSQLPKDRFSAERLKGVDSTLKIQPAKLEDSAVYLCASSSPLGGFAGANVLTFGAGSRLTVL
- binding result [3]: recognises

B13: TCR_A0015 (TCR, V domains shown)
Valpha: AQSVTQLDSQVPVFEEAPVELRCNYSSSVSVYLFWYVQYPNQGLQLLLKYLSGSTLVKGINGFEAEFNKSQTSFHLRKPSVHISDTAEYFCAVSALSYNQGGKLIFGQGTELSVKP
Vbeta: DAGVIQSPRHEVTEMGQEVTLRCKPISGHNSLFWYRQTMMRGLELLIYFNNNVPIDDSGMPEDRFSAKMPNASFSTLKIQPSEPRDSAVYFCASSWTGNEQYFGPGTRLTVT
- binding result [7]: recognises

B14: TCR_A0061 (TCR, V domains shown)
Valpha: KQEVTQIPAALSVPEGENLVLNCSFTDSAIYNLQWFRQDPGKGLTSLLLIQSSQREQTSGRLNASLDKSSGRSTLYIAASQPGDSATYLCAVLMDSNYQLIWGAGTKLIIKP
Vbeta: DAGITQSPRYKITETGRQVTLMCHQTWSHSYMFWYRQDLGHGLRLIYYSAAADITDKGEVPDGYVVSRSKTENFPLTLESATRSQTSVYFCASSSDGMNTEAFFGQGTRLTVV
- binding result [4]: recognises
